Reference: patent publication US20240247080A1, “GLP1/GIP/NPY2 RECEPTOR TRIPLE AGONISTS” (Boehringer Ingelheim International GmbH, priority 2022, published 2024)
Starred links: 1 amine or outer side, 2 acyl side, 3 side chain; linkers in the order of their positions; H or OH if unused. Non-standard residues stand in square brackets, D forms with d. Groups on a side chain read outwards from the residue. No end group written: not given here. *: point of attachment. C20 diacid = O=C(O)CCCCCCCCCCCCCCCCCCC(=O)*; C18 diacid = O=C(O)CCCCCCCCCCCCCCCCC(=O)*; γGlu = O=C(O)[C@H](CCC(=O)[*:2])N[*:1]; εLys = N[C@@H](CCCCN[*:1])C(=O)[*:2]; AEEA = NCCOCCOCC(=O)O; Aib = CC(C)(N)C(=O)O

T1: human GIP receptor (human, UniProt P48546 22-466)
T1 sequence (looked up): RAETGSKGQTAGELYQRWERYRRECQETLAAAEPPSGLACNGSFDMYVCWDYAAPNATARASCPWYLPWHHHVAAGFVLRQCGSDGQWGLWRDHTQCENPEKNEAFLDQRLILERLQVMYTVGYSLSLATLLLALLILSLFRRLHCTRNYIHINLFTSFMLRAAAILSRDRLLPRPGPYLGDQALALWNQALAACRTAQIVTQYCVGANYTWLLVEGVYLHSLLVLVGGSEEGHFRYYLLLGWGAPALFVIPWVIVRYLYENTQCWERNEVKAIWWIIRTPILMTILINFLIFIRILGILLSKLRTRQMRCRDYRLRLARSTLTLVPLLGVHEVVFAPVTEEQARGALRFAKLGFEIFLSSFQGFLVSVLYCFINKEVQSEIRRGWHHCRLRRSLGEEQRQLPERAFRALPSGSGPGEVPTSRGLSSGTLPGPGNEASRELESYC

T2: human neuropeptide Y2 receptor (human, UniProt P49146 1-381)
T2 sequence (looked up): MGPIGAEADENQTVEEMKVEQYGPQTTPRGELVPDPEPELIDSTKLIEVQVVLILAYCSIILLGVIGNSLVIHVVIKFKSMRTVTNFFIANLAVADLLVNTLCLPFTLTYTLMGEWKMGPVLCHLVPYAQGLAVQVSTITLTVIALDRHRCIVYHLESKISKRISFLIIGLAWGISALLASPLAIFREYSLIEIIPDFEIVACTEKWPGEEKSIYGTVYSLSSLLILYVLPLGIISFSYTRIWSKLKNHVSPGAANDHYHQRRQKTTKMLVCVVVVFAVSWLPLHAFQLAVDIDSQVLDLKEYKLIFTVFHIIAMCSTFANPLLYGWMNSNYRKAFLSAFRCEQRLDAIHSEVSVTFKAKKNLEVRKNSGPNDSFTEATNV

T3: GIP receptor (human (printed as hGIPR), UniProt P48546 22-466)
T3 sequence (looked up): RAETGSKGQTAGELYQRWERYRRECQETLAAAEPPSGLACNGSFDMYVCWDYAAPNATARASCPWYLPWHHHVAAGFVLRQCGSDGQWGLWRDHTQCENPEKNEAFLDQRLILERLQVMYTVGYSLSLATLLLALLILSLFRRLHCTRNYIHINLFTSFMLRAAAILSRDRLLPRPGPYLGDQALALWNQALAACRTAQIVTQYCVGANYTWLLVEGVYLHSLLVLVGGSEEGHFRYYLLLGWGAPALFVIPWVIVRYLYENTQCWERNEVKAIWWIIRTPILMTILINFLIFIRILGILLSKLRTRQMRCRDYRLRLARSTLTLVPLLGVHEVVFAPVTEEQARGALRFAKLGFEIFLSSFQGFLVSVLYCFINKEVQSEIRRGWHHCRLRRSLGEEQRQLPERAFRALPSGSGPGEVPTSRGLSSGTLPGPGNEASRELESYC

T4: NPY2 receptor (human (printed as hNPY2R), UniProt P49146 1-381)
T4 sequence (looked up): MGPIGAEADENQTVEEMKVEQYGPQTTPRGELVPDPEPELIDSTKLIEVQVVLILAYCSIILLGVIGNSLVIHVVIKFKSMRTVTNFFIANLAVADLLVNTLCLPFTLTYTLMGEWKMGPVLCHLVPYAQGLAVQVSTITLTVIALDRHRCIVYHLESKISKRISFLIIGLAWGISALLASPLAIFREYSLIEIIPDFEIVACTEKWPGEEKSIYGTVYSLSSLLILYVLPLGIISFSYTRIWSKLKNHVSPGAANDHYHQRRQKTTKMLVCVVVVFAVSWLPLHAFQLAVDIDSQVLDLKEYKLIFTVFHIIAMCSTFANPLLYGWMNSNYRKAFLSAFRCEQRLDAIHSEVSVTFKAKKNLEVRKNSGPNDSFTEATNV


Experiments:
Test in all cases: cell-based or functional assay
human GLP-1 receptor = human GLP-1 receptor (human, UniProt P43220 24-463)
human GIP receptor = target: T1, human GIP receptor
[1] = target: T2, human neuropeptide Y2 receptor
GLP-1 receptor = GLP-1 receptor (human (printed as hGLP1R), UniProt P43220 24-463)
GIP receptor = target: T3, GIP receptor
NPY2 receptor = target: T4, NPY2 receptor

| Binder | EC50 CreLuc hGLP1R 0.5% hP (human GLP-1 receptor) [nM] | EC50 CreLuc hGLP1R 100% hP (human GLP-1 receptor) [nM] | EC50 CreLuc hGIPR 0.5% hP (human GIP receptor) [nM] | EC50 CreLuc hGIPR 100% hP (human GIP receptor) [nM] | EC50 CreLuc hNPY2R 0.5% hP [1] [nM] | EC50 CreLuc hNPY2R 100% hP [1] [nM] | EC50 hGLP1R 0.5% hP (CreLuc) (GLP-1 receptor) [nM] | EC50 hGLP1R 100% hP (CreLuc) (GLP-1 receptor) [nM] | EC50 hGIPR 0.5% hP (CreLuc) (GIP receptor) [nM] | EC50 hGIPR 100% hP (CreLuc) (GIP receptor) [nM] | EC50 hNPY2R 0.5% hP (CreLuc) (NPY2 receptor) [nM] | EC50 hNPY2R 100% hP (CreLuc) (NPY2 receptor) [nM] |
| --- | --- | --- | --- | --- | --- | --- | --- | --- | --- | --- | --- | --- |
| Y[Aib]EGTFTSDYSI[Aib]LEKQAQ[Aib]AFVQWLIK([AEEA-AEEA-γGlu-γGlu-Glu-γGlu-C20 diacid])GGPSEPASLRHYYNWLTRQRY-NH2 [Compound 165] | 0.13 | 4.81 | 0.33 | 1.88 | 8.91 | 36 |  |  |  |  |  |  |
| Y[Aib]EGTFTSDYSI[Aib]LEKQAQ[Aib]EFVEWLIK([εLys-γGlu-γGlu-γGlu-γGlu-γGlu-C18 diacid])GGPSSGASLRHYYNWLTRQRY-NH2 [Compound 159] | 0.19 | 5.17 | 0.35 | 0.91 | 13.8 | 34.6 |  |  |  |  |  |  |
| Y[Aib]EGTFTSDYSI[Aib]LEKQAQ[Aib]AFVEWLIK([AEEA-AEEA-γGlu-γGlu-γGlu-γGlu-C18 diacid])GGPSSPASLRHYYNWLTRQRY-NH2 [Compound 158] | 0.09 | 3.25 | 0.11 | 0.84 | 15.8 | 39.9 |  |  |  |  |  |  |
| Y[Aib]EGTFTSDYSI[Aib]LEKQAE[Aib]AFVQWLIK([AEEA-AEEA-γGlu-γGlu-γGlu-γGlu-C18 diacid])GGPSEGASLRHYYNWLTRQRY-NH2 [Compound 156] | 0.18 | 6.5 | 0.16 | 0.72 | 13.5 | 26.5 |  |  |  |  |  |  |
| Y[Aib]EGTFTSDYSI[Aib]LEKQAQ[Aib]AFVQWLIK([AEEA-AEEA-γGlu-γGlu-γGlu-γGlu-C18 diacid])GGPSEPASLRHYYNWLTRQRY-NH2 (also: TFA salt) [Compound 173] |  |  |  |  |  |  | 0.11 | 3.07 | 0.27 | 0.94 | 12.4 | 24.9 |
| Y[Aib]EGTFTSDYSI[Aib]LEKQAQ[Aib]AFVEWLIK([AEEA-AEEA-γGlu-γGlu-γGlu-γGlu-C18 diacid])GGPESGASLRHYYNWLTRQRY-NH2 [Compound 163] | 0.1 | 4.72 | 0.26 | 0.87 | 21.3 | 55.2 |  |  |  |  |  |  |
| Y[Aib]EGTFTSDYSI[Aib]LEKQAQ[Aib]AFVEWLIK([AEEA-AEEA-γGlu-γGlu-γGlu-C18 diacid])GGPESGASLRHYYNWLTRQRY-NH2 [Compound 166] | 0.07 | 4.24 | 0.08 | 0.64 | 12.5 | 57.9 |  |  |  |  |  |  |
| Y[Aib]EGTFTSDYSI[Aib]LEKQAQ[Aib]EFVQWLIK([AEEA-AEEA-γGlu-γGlu-γGlu-C18 diacid])GGPSEGASLRHYYNWLTRQRY-NH2 [Compound 160] | 0.3 | 6.31 | 0.33 | 0.91 | 8.23 | 21.9 |  |  |  |  |  |  |
| YXEGTFTSDYSIXLEKQAQXAFVQWLIKGGPEEGASLRHYYNWLTRQRY (Aib at 2, 13, 20; K28 side chain: C18DA-gGlu-gGlu-gGlu-gGlu-gGlu-AHX; C-terminal NH2) [Compound 162] | 0.2 | 8.2 | 0.25 | 1.61 | 25.8 | 92.6 |  |  |  |  |  |  |
| YXEGTFTSDYSIXLEKQAQXAFVQWLIKGGPSSGASLRHYYNWLTRQRY (Aib at 2, 13, 20; K28 side chain: C18DA-gGlu-gGlu-gGlu-gGlu-gGlu-OEG-OEG; C-terminal NH2) [Compound 167] | 0.04 | 0.82 | 0.14 | 0.49 | 10.5 | 26.5 |  |  |  |  |  |  |
| YXEGTFTSDYSIXLEKQAQXAFVEWLIKGGPRSGASLRHYYNWLTRQRY (Aib at 2, 13, 20; K28 side chain: C20DA-gGlu-gGlu-gGlu-gGlu-gGlu-gGlu-eLys; C-terminal NH2) [Compound 168] | 0.11 | 3.59 | 0.2 | 1.5 | 6.05 | 36.1 |  |  |  |  |  |  |
| Y[Aib]EGTFTSDYSI[Aib]LEKQAQ[Aib]AFVEWLIK([AEEA-AEEA-γGlu-γGlu-γGlu-γGlu-C18 diacid])GGPEEPASLRHYYNWLTRQRY-NH2 [Compound 161] | 0.21 | 8.06 | 0.14 | 1.23 | 11.5 | 41.7 |  |  |  |  |  |  |
| Y[Aib]EGTFTSDYSI[Aib]LEKQAQ[Aib]EFVQWLIKGGPSEGASLRHYYNWLTRQRY-NH2 (not fully specified (residue 28)) [Compound 164] | 0.28 | 6.48 | 0.25 | 1.26 | 24 | 50.1 |  |  |  |  |  |  |
| Y[Aib]EGTFTSDYSI[Aib]LEKQAQ[Aib]EFVQWLIK([AEEA-AEEA-Glu-Glu-Glu-C18 diacid])GGPSEGASLRHYYNWLTRQRY-NH2 [Compound 157] | 0.35 | 9.05 | 0.38 | 1.58 | 23.6 | 86.9 |  |  |  |  |  |  |
| Y[Aib]EGTFTSDYSI[Aib]LEKQAE[Aib]AFVQWLIKGGPSEGASLRHYYNWLTRQRY-NH2 (not fully specified (residue 28); also: TFA salt) [Compound 174] |  |  |  |  |  |  | 0.22 | 7.71 | 0.17 | 1.26 | 11.5 | 39.2 |
| Y[Aib]EGTFTSDYSI[Aib]LEKQAQ[Aib]AFVQWLIK([εLys-Glu-Glu-Glu-Glu-Glu-C18 diacid])GGPEEGASLRHYYNWLTRQRY-NH2 [Compound 155] | 0.15 | 7.18 | 0.14 | 1.43 | 17 | 95 |  |  |  |  |  |  |
